Laboratory results as given in the nanobody polyreactivity screen of Harvey et al. (2022).

Test: yeast display, Sf9 membrane polyspecificity reagent, FACS + sequencing; frameworks hold sequencing errors
Summary of the method: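 Galactose-induced (36–48 hours) yeast carrying a synthetic nanobody display library were exposed to 10% biotinylated, detergent-solubilized Sf9 membrane reagent at 4 °C for 1 hour. FACS followed streptavidin microbead enrichment, using low and high (top ~1%) gates for expression (anti-HA) and reagent binding (streptavidin). Colony PCR, MiSeq 2 × 250 sequencing and CDR-length filtering followed. Labels for polyreactivity reflect the gate of origin.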

Row | Sequence | polyreactivity (PSR sort gate)
1 | QVQLVESGGGLVQAGGSLRLSCAASGYIFYFNAMGRYRQAPGKERELVAVISDRDDSTYYADSVKGRFTISRDNAKNTVYLQMNSLKPEDTAVYYCAADGDTYVDDPYDYWGQGTQVTVSS | low polyreactivity
2 | QVKLVESGGGLVQAGGSLRLSCAASGFTIANYAMGWYRQAPGKERELVAAITTSGSTYYADSVKGRFTISRDNAKNTVYLQMNSLKPEDTAVYYCAVSIWVWFASGFDYWGQGTQVTVSS | high polyreactivity
3 | QVQLVESGGGLVHAGGPLRLSCAASGFTFGEYAMGWYRPAPGKERELVAAITWSVGSTYYADSVKGRFTISRDNAKNTVYLEMNSLKPEDTAVYYCAAVLNWSRYGYWGQGTQVTVSS | low polyreactivity
4 | QVQLVESGGGLVQAGGSLRLSCAASGITFYRYAMGWSRQAPGKERELVAAITWSGGSTYYADSVKGRFTISRDNAKNTVYLQMNSLKPEDTAVYYCAAVLYSPDFFGNYDYWGQGTQVTVSS | low polyreactivity
5 | QVQLVESGGGLVQAGGSLRLSCAASGRTFGWNAMGWYRQAPGKERELVASIRYSGGTTYYADSVKGRFTISRDNAKNTVYLQMKSLKPEDTAVYYCNSAYYNTGATRPYGYGYWGQGTQVTVSS | low polyreactivity
6 | QVQLVESGGGIVQAGGSLRLSSAASGFTFYYYAIGWYRQAPGKERELVAAISSGGSTYYADSVKGRFTISRDNAKNTVYLQMNSLKPEDTAVYYCAADSLYYRYDYWGQGTQVTVSS | low polyreactivity
7 | QVQLVESGGGLVQAGGILRLSCAASGFIFRKYAMGWYRQAPGKERELVAAINKSGGSTYYADSVKGRFTISRDNAKNTVYLQMNSLKPEDSAVYYCATVRTYRPPVRRGYWGQGTLVTVSS | high polyreactivity
8 | QVQLVESGGGLVQAGGSLRLSCAASGFIFKRYTMGWYRQAPGKERELVAAISKSGSSTYYADSVKGRFTISRDNAKNTVYLQMHSLKPEDTAVYYCAAGWGWSSFGYGYWGQGTQVTVSS | high polyreactivity
9 | QVQLVESGGGLVQAGGSLRLSCAASGITFVYYAMGWYRQAPGKERELVAGIDWSGGSTYYADSVKGRFTISRDNAKNTVYLQMNSLKPEDTAVYYCAAEFWLSTDFYYWGQGTQVTVSS | high polyreactivity
10 | QVQLVESGGGLVQAGGSLRLSCAASGRTFSYYARGWYRQAPGKEREFVAAISSSGGSTNYADSVKGRFTISRDNAKNTVYLQMNSLKPEDTAVYYCNAGSGYTGVYLWYYWRYDYWGQGTQVTVSS | low polyreactivity
11 | QVQLVESGGGLVQAGGSLRLSCAASGFTFNDYAMGWYRQAPGKEWELVAAIDWSGGRTYYADSVKGRFTISRDNAKNTVYLQMNSLKAEDTAVYYFAAVLYSRLYWYRLDYWGQGTQVTVSS | low polyreactivity
12 | QVQLVESGGGLVQAGGSLRLSCAASGSIFDDYAMGWYRQAPGKEREKVAAISWSGGRTYYADSVKGRFTISRDTAKNTVYLQMNSLKPEDTAVYYCAATTGVRSRRYYYWGQGTQVTVSS | high polyreactivity
13 | QVHLVESGGGLVQAGGSLRLSSAASGSIFQYNAMGWYRQAPGKERELVAGITTGGDTNYADSVKGRFTISRDNAKNTVYLHMNSLKPEDTAVYYCAARFGQWVSAYDYWGQGTQVTVSS | low polyreactivity
14 | QVQLVESGGGLLQAGGSLRLSCAASGRTLWIYAMGWYRQAPGKERELVASITTRGGSTYYADSVKGRFTISRDNAKNTVYLQMNSLKPEDTAVYYCARVSGARYTSYDYWGQGTQVTVSS | high polyreactivity
15 | QVQLVESGGGLVQAGGSLRLSCAASGRIFGRNAMGWYRQAPGKERELVAAIRLSGGSTYYADSVKGRFTISRDNAKNTVYLQMNSLKPEDTAVYYCATRPVANGRKYDYWGQGTQVTVSS | high polyreactivity
16 | QVQLVESGGGLVQAGGSLRLSCAASGRIFWINAMGWYRQATGKERELVATISSGSTSYADSVKGRFTISRDNAKNTVYLQMNSLKPEDTAVYYCAVTLRYTRSGAYDYWGQGTQVTVSS | low polyreactivity
17 | QVQLVESGGGLVQAGGSLRLSCAASGFIFGKYAMGWYRQAPGKEREVVAAITSGGSTYYADSVKGRFTISRDNAKNTVYLQMNSLKPEDTAVYYCAVPFTFWWSSYRYDYWGQGTQVTVSS | high polyreactivity
18 | QVQLVESGGGLVQAGGSHRLSCAASGRTFRQYAMGWYRQAPGKERELVATISSGGSTYYADSVKGRFTISRDNAKNTVYLQMNSLKPEDTAVYYCAAPYWARKYWRKFGPFDYWGQGTQVTVSS | low polyreactivity
19 | QVQLVESGGGLVQAGGSLRLSCAASGITFNAYAMGWYRQAPGKERELVAAITSSGSSTYYADSVKGRFTISRDYAKNTVYLQMNSLKPDDTAVYYCAATRGTKFYWGQGTQVTVSS | high polyreactivity
20 | QVQLVESGGGLVQAGGSLRLSCAASGYTFFTNAMGWYRQAPGKEREFVAAISKSGGNTYYADSVKGRFTISRDNAKNTVYLQMNSRKPEDTAVYYCAAQHRGYAGPRPYYYWGQGTQVTVSS | high polyreactivity
21 | QVQLVESGGGLVQAGGSLRLSCAASGFTFSYYAMGWYRQATGKETELVAGIDYSGGSTYYADSVKGRFTISRDNAKNTVYLQMNCLKPEDTAVYYCNAVYARIYYYSHGYDYWGQGTQVTVSS | high polyreactivity
22 | QDQIVESGGGYDQAGGSLRLTCAASGRIFRGNDMGSYRQAPGKERELVASISGTGGRTYYADSVKGRFTISRDNAKNTVYLQMNSLKPEDPAVYYCAVRTSLWGYYYWGHGTQVTVSS | high polyreactivity

Row | Sequence | polyreactivity (PSR sort gate)
23 | QVQLVESGVGLVQAGGSLRLSCAASGSIITPYAMGWYRQAPGKERELVAAITSGGSTYADSVKGRFTISRDNAKNTVYLQMNSLKPEDTAVYYCAADRSYVYAGADMYYWGQGTQVTVSS | low polyreactivity
24 | QVQLVESGGGVVQAGRSLRISCAASGSTFRGYAMGWYRQAPGKDRELVATISGSDGTTYYADSVKGRFTISRDYAKNTVYLQMNCLNPEDTAVFYCDAGESFEMYYWGQGSQVTVSS | low polyreactivity
25 | QVQLVESGGGLVQAGGSLRLSCAASGSTFVPYAMGWYRQAPGKERELVAAISQSGGSTYYADSVKGRYTISRDNAKNTVYLQMTSLKPEYTAVYYCNVDQFRYPEYDYWGQGTQVTVSS | high polyreactivity
26 | QVQLVESGGGLVQAGGSLRLSCAASGRTFISYAMGWYRQAPGKERELVAAISWSGGRTSYADSVKGRFTISRDNAKNTVYLHMNSLKPEDTAVYYCNAQYNSWFAIKDYDYWGQGTQVTVSS | low polyreactivity
27 | QVQLVESGGGLVQAGGSLRLSCAASGSTFKIYAMGWYRQAPGKEREVVARITGRGGSTYYADSVKGRFTISRDNAKNTVYLQMNSLKPEDTAVYYCAAAKRYYSEMYWGQGTQVTVSS | high polyreactivity
28 | QVQLVESGGGLVQAGCSLRLSCAASGITFTYYAMGWYRQAPGKERELVAAINTGGNTNYADSVKGRFTISRDYAKNSVYLQMNSLKPEDTAVYYCAAYWYYYWWYDYWGQGTQVSVSS | high polyreactivity
29 | QVQLVESGGGLVQAGGSLRLSCAASGIILYRYAMGWYRQAPGKERELVAAISRRGGSTYYADSVKGRFTISRDNAKNTVYLQMNSLKPEDTAVYYCATRSTFYSRWGEVYTYYYWGQGTQVTVSS | high polyreactivity
30 | QVQLVESGGGLVQAGGSLRLSCAASGRTLVLYVMGWYRQAPGKERELVAAISSGGSTNYADSVKGRFTISRDNAKNTVYLQMNSLKPEDTAVYYCAARFVLRRDYGYGGQGTQVTVSS | high polyreactivity
31 | QVQLVESGGGLVQAGGSLRISCAASGSIFSWKDMGWYRQAPGKERELVAAITSGGSTYYADSVKGRFTISRDNAKNTVYLQMNSLKPEDTAVYYCAAVFLLFGFEWSYDYWGQGTQVTVTS | low polyreactivity
32 | QVQLVESGGGLVQAGGSLRLSCAASGIIFRGYAMGWYRQAPGKERELVAGITSGGRTYYADSVKGRFTISRDNAKNTVYLQMNSLKPEDTAVYYCNADAYGDDWKIYDYWGQGTQVTVSS | low polyreactivity
33 | QVQLVESGGGLVQAGGSHRLSCAASGRTYVYNAMGWYRQAPGKERELDAGITNGGSTNYADSVKGRFTISRDNAKNTVYLQMNSLKPEDTAVYYCAADSRVYPYYFGDFGYWGQGTQVTVSS | low polyreactivity
34 | QVQLVESGGGLVQAGGSLRLSCAASGRTFVFNAMGWYRQAPGKERELVAAISRSGGSTYYADSVKGRFTISRDNAKNTVYLQMNSLKTEDTAVYYCAADTPYLRRRLGMDYWGQGTQVTVSS | high polyreactivity
35 | QVQLVESGGGLVQAGGSLRLSCAASGFIFDWYAMGWYRQAPGKERELVAAISYSGGSTYYADSVKGRFTISRDNAKNTVYLQMNSLKPEDTAVYYCNADIWYGDMDYWGQGTQVTVSS | high polyreactivity
36 | QVQLVESGGGLVQAGGSLRLSCAASGSTFAYNAMGWYRQAPGKERELVAAITRSGGSTYYADSVKGRFTISRDNAKNTVYLQKNSLKPEDTAVYYCNKASGGYYVTSLYAYRYYYWGQGTQVTVSS | high polyreactivity
37 | QVQLVESGGGLVQAGGSLRLSCPASGRTMGGNAMGWYRQAPGKEREFVARISTRGVRKYYADSVKGRFTISRDNAKNTVYLQMNSLKPEDTAVYYCAKHVSYGHIGAYPDRDSWGQGTQVTVSS | low polyreactivity
38 | QVQLVESGGGLVQAGCSLRLSCAASGSIFDVNAMGWYRQAPGKERELVAAISQRGNRTYYADSVKGRFTISRDNAKNTVYLQMNSLKPEDTAVYYCNRGGWRQYDSWGQGTQVTVSS | high polyreactivity
39 | QVQLVESGGGLVQAGGSLRLSCAASGSTFGTNAMGWYRQAPGKERELVAAISVSSTYYADSVKGRFTISRDNAKNTVYLQMNSLKPEDTAVYYCAADNSYGYRLDYWGQGTQVTVSS | low polyreactivity
40 | QVQLVESGGGLVQAGGSLRLSCAASGIILAGYGMGWYRQAPGKERELVAAINGCGGSTYYADSVKGRFTISRDNAKNTVYLQMNSLKPEDTAVYYCATDWWSGLYYYWGQGTQVTVSS | high polyreactivity
41 | QVQLVESGGGLVQAGGSLRLSCAASGSTFLYNTMGWYRQAPGKERELVATITSRGDRTYYADSVKGRFTISRDIPKNNVYLQMNSLKPEDTAVYYCNAYGGNYPQSYRYYYWGQGTQVTVSS | low polyreactivity
42 | QVQLVESGRGLVQAGGSLRLSCAASGGTFSPYAMGWYSQGPGKDRELVASITGSGGSTYYADSVKGRFTISRGNATTTVNLQMTSLNPEDTAVYYCAAQGYWTYWPYLLRLYDYWGQGTQVTVSS | low polyreactivity
43 | QVQLVESGGGLVQEGGSLRLSCAASGSTFDSNAMGWYRQAPGTERELVAAIDWSGGSTYYADSVKGRFTISRDNAKNSVYLQMNSLKPEDTAVYYCAADDYSSNYGDFDYWGQGTQVTVSS | low polyreactivity
